Source: the supplement of paper PMC10065799, “High-throughput profiling of sequence recognition by tyrosine kinases and SH2 domains using bacterial peptide display” (eLife, 2023)

Key:
Grb2 SH2 = Grb2 SH2 (UniProt P62993); experiment: SH2 binding enrichment of the phosphorylated peptide, bacterial display (enrichment ratio); higher = better substrate or ligand; peptides without Tyr show the background
SHP2-C SH2 = experiment: as above
c-Src SH2 = experiment: as above
FGFR1 = FGFR1 (UniProt P11362); experiment: phosphorylation enrichment, bacterial display (enrichment ratio); higher = better substrate or ligand; peptides without Tyr show the background
Chain of FGFR1 (P11362 whole entry, looked up): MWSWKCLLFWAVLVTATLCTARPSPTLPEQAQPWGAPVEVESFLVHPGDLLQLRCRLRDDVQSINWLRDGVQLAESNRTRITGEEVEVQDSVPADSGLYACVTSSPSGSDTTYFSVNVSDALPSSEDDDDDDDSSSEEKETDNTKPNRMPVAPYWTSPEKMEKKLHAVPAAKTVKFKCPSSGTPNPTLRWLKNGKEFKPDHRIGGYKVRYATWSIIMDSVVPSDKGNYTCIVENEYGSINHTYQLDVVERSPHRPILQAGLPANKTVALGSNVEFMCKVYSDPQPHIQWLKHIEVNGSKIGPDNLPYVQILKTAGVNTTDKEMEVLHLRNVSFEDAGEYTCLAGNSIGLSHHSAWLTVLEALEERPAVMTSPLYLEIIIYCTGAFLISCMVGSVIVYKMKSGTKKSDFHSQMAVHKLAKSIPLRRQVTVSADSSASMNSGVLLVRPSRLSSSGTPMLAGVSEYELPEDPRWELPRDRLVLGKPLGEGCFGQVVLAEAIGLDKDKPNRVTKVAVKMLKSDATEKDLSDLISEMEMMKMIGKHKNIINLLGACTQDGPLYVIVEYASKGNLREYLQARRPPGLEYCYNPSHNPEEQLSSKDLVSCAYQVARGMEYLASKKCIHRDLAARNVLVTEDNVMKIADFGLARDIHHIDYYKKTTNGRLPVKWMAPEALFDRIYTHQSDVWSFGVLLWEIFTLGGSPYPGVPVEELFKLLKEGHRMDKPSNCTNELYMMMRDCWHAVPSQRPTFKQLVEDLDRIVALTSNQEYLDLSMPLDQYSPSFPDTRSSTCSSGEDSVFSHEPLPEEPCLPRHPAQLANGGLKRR

Jak2 = Jak2 (UniProt O60674); experiment: as above
MERTK = MERTK (UniProt Q12866); experiment: as above
Chain of MERTK (Q12866 whole entry, looked up): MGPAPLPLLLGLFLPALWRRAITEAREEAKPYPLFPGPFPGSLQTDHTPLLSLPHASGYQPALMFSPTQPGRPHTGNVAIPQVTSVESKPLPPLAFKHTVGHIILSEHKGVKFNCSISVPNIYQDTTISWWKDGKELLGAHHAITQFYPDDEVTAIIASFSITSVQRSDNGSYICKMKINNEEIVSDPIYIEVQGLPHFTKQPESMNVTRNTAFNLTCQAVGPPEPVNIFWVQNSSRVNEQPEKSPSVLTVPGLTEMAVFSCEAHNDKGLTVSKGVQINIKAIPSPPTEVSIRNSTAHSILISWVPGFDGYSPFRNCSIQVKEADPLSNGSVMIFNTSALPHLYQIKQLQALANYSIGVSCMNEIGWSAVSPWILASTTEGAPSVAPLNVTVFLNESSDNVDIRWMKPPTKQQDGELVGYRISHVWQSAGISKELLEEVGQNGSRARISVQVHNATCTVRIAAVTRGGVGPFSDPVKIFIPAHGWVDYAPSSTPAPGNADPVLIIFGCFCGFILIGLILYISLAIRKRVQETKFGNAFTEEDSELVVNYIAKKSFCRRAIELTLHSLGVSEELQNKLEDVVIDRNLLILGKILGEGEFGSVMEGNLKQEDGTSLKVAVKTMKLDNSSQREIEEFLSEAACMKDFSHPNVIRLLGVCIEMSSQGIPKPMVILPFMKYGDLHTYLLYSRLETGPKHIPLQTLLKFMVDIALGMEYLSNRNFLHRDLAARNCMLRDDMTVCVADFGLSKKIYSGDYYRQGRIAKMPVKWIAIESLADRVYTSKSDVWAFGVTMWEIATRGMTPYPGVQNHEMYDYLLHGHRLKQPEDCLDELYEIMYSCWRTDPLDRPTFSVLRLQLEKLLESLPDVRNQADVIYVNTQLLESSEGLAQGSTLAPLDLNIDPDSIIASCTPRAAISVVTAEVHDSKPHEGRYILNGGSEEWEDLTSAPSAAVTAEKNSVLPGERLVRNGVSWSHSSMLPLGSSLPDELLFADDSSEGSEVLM

Fer (mouse) = experiment: as above
EPHB1 = EPHB1 (UniProt P54762); experiment: as above
Chain of EPHB1 (P54762 whole entry, looked up): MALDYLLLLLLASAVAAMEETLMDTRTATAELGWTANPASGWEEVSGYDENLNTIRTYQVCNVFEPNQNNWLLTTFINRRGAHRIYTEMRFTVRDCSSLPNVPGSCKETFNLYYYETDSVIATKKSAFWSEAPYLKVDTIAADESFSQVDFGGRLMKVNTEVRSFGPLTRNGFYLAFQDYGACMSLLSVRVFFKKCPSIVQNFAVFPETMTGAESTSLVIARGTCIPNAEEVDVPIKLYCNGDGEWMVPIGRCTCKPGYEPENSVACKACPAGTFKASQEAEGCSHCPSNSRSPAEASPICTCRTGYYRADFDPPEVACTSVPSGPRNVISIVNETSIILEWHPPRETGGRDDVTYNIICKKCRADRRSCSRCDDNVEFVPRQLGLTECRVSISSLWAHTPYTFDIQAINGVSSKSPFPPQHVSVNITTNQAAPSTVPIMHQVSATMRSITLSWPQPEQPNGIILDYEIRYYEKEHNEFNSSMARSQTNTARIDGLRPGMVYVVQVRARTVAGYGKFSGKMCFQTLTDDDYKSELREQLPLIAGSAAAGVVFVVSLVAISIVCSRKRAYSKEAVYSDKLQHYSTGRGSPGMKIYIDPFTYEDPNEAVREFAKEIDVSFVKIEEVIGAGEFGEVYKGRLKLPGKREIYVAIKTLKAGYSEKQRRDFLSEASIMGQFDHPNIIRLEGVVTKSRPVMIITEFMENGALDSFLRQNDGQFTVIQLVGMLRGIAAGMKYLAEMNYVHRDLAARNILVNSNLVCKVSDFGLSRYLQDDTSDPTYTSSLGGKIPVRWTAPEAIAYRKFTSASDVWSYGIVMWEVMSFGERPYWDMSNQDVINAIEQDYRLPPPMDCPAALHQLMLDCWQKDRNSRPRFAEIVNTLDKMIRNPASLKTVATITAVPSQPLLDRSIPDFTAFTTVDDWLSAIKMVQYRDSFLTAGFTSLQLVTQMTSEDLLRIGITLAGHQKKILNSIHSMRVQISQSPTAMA

c-Src = experiment: as above
AncSZ = experiment: as above
Fyn = Fyn (UniProt P06241); experiment: as above
Chain of Fyn (P06241 whole entry, looked up): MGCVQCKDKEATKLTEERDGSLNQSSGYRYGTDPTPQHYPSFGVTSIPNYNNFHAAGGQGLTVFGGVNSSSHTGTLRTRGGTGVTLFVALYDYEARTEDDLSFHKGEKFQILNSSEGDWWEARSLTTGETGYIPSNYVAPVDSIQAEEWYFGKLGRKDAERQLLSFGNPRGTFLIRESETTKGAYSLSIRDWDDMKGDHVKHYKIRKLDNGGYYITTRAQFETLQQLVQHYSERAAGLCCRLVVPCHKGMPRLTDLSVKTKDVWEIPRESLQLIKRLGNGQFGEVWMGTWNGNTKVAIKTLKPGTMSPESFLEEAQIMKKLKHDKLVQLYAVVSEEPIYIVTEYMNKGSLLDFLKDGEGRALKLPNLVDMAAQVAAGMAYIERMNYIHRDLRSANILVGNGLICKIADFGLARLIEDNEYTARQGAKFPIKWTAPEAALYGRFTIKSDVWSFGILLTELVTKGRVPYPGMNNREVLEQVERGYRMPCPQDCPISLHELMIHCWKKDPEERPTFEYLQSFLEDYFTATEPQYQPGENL

FGFR3 = FGFR3 (UniProt P22607); experiment: as above
c-Abl (mouse) = experiment: as above
Fes = Fes (UniProt P07332); experiment: as above
EPHB2 = EPHB2 (UniProt P29323); experiment: as above
Chain of EPHB2 (P29323 whole entry, looked up): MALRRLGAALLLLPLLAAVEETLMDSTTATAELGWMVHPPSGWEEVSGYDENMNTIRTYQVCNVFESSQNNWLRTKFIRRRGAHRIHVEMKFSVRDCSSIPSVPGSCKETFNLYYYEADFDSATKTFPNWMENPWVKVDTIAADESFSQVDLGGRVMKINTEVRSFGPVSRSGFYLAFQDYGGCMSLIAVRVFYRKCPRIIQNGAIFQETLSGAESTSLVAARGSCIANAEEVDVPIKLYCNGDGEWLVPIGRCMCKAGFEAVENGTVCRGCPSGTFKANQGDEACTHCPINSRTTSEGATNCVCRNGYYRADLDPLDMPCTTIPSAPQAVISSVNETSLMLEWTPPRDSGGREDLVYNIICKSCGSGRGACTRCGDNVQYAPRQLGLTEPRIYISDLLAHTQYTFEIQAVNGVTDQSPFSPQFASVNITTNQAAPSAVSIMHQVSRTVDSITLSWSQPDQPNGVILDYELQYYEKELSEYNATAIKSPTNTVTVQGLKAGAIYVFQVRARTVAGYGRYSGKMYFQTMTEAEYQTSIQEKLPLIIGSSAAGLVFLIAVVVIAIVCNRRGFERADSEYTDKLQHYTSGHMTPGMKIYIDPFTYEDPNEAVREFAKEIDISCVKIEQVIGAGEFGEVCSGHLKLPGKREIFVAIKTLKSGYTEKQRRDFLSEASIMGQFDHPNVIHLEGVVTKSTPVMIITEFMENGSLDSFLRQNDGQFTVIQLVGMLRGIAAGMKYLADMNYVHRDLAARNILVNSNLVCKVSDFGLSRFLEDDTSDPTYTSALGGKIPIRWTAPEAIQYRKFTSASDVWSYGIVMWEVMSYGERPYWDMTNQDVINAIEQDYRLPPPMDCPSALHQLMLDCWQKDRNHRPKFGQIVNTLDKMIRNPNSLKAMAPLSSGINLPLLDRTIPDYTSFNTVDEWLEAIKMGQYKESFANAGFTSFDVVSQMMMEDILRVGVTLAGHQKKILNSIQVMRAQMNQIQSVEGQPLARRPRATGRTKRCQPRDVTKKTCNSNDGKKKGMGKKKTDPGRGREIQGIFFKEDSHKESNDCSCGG

Hck = Hck (UniProt P08631); experiment: as above
Chain of Hck (P08631 whole entry, looked up, the tested form may be a part): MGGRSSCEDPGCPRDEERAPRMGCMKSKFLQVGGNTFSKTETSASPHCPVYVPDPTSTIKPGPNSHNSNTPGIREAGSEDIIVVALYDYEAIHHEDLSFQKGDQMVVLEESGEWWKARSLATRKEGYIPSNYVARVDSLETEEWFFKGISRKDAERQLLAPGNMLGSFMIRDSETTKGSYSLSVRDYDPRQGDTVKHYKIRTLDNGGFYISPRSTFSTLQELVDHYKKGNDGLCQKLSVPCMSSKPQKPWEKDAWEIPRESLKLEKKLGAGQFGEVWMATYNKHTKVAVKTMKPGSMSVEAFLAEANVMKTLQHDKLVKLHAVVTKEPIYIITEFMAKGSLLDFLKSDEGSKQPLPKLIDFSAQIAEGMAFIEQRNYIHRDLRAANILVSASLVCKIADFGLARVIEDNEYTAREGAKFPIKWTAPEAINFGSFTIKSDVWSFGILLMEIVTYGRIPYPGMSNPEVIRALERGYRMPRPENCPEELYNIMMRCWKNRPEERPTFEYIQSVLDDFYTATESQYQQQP
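Throughout, for SH2 binding enrichment of the phosphorylated peptide, bacterial display: peptide library displayed on the E. coli surface as eCPX fusions, selected cells deep-sequenced, score is each peptide's frequency after selection divided by its frequency in the input.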
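Throughout, for phosphorylation enrichment, bacterial display: 11-residue human phosphosite peptides and single-mutation variants displayed on the E. coli surface, counted by deep sequencing, each peptide's frequency after selection divided by its frequency in the unselected input library; frequency after pTyr selection over input frequency; kinase dosed for 20-30% of maximal phosphorylation in three min.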

Row | SH2 binding enrichment (Grb2 SH2) | SH2 binding enrichment (SHP2-C SH2) | SH2 binding enrichment (c-Src SH2) | Sequence | phosphorylation enrichment (FGFR1) | phosphorylation enrichment (Jak2) | phosphorylation enrichment (MERTK) | phosphorylation enrichment (Fer (mouse)) | phosphorylation enrichment (EPHB1) | phosphorylation enrichment (c-Src) | phosphorylation enrichment (AncSZ) | phosphorylation enrichment (Fyn) | phosphorylation enrichment (FGFR3) | phosphorylation enrichment (c-Abl (mouse)) | phosphorylation enrichment (Fes) | phosphorylation enrichment (EPHB2) | phosphorylation enrichment (Hck)
1 | 0.935 | 0.825 | 0.674 | ATHSRYRLNDF [CLDN14_Y233_G232R_YF] | 0.307 | 0.413 | 0.391 | 0.349 | 0.296 | 0.36 | 0.419 | 0.329 | 0.308 | 0.546 | 0.706 | 0.337 | 0.449
2 | 0.664 | 0.546 | 0.697 | GPQSLYNGLVA [UCP2_Y79_R76Q] | 0.493 | 0.744 | 0.723 | 0.552 | 0.477 | 1.83 | 0.622 | 0.85 | 0.515 | 0.628 | 0.614 | 0.551 | 3.69
3 | 1.08 | 0.812 | 0.593 | PTTKSYFPHFD [HBA1_Y43_T42S] | 1.38 | 0.558 | 0.664 | 0.497 | 0.746 | 0.498 | 1.13 | 0.431 | 0.77 | 0.501 | 1.42 | 0.442 | 0.752
4 | 0.94 | 0.638 | 0.439 | SKLTIYDGRPS [MTM1_Y277_A279G] | 0.456 | 0.589 | 0.463 | 0.409 | 0.367 | 0.612 | 0.713 | 0.539 | 0.508 | 0.508 | 0.674 | 0.499 | 1.44
5 | 0.989 | 0.642 | 0.597 | DLVSEYQQYQD [TUBB3_Y422] | 0.523 | 1.42 | 0.488 | 0.709 | 0.721 | 0.677 | 1.57 | 0.706 | 0.858 | 1.04 | 1.37 | 0.704 | 0.656
6 | 1.04 | 0.517 | 0.762 | KPPPSYESEEE [BRD4_Y599_T598S] | 0.584 | 1.32 | 0.543 | 0.557 | 0.611 | 0.591 | 1.42 | 0.639 | 0.71 | 0.957 | 1.29 | 0.761 | 0.601
7 | 1.04 | 0.752 | 2.05 | THPFPYLSLEI [MLH1_Y293_L292P] | 0.657 | 1.09 | 0.414 | 0.39 | 0.502 | 0.554 | 0.909 | 0.295 | 0.677 | 0.715 | 0.978 | 0.474 | 0.475
8 | 0.872 | 0.597 | 0.682 | TFHNTYHSQMR [IL1RAPL1_Y615] | 0.458 | 0.849 | 0.402 | 0.466 | 0.33 | 0.5 | 0.631 | 0.471 | 0.489 | 0.612 | 0.567 | 0.411 | 0.434
9 | 0.849 | 0.757 | 1.68 | SVVVHYEPPEV [TP53_Y220_P219H] | 0.525 | 0.758 | 0.71 | 1.86 | 0.699 | 0.485 | 1.15 | 0.484 | 0.647 | 1.72 | 1.02 | 0.616 | 0.537
10 | 0.981 | 0.642 | 0.422 | HLITAYRAHGF [PDHA1_Y118] | 0.701 | 0.408 | 0.369 | 0.489 | 0.572 | 0.344 | 0.648 | 0.551 | 0.609 | 0.309 | 0.74 | 0.389 | 0.536
11 | 0.655 | 12.8 | 1.24 | NGTVTYAIVAG [CDH23_Y1672] | 0.545 | 0.799 | 2.6 | 0.471 | 3.07 | 1.08 | 0.99 | 0.904 | 0.714 | 0.688 | 0.992 | 2.01 | 1.09
12 | 0.988 | 0.899 | 0.679 | APSHAYHRGVL [ANO1_Y981_G983R] | 0.395 | 0.534 | 0.38 | 0.411 | 0.363 | 0.426 | 0.507 | 0.424 | 0.472 | 0.51 | 0.583 | 0.355 | 0.385
13 | 0.872 | 0.737 | 0.437 | DGLASYLDKVR [KRT12_Y139_R135G] | 0.363 | 0.631 | 0.415 | 0.365 | 0.41 | 0.414 | 0.664 | 0.422 | 0.51 | 0.685 | 0.757 | 0.414 | 0.375
14 | 0.858 | 0.83 | 0.645 | RLLRGYDQSAY [HLA-C_Y137] | 0.394 | 0.576 | 0.36 | 0.52 | 0.569 | 0.416 | 0.57 | 0.465 | 0.593 | 0.468 | 0.826 | 0.465 | 0.527
15 | 1.03 | 0.831 | 0.507 | GRSTCYWPRPR [GAGE12J_Y10_Y9C] | 0.538 | 0.885 | 0.567 | 0.602 | 0.502 | 0.649 | 0.762 | 0.543 | 0.531 | 0.697 | 0.686 | 0.512 | 0.557
16 | 0.895 | 0.672 | 0.603 | CPYNLYAAQLS [HGD_Y40_E42A] | 0.815 | 0.917 | 5.62 | 3.49 | 4.48 | 6.42 | 1.28 | 3.15 | 0.939 | 0.857 | 1.13 | 4.3 | 3.08

Continued, sequence first:

Row | Sequence | SH2 binding enrichment (Grb2 SH2) | SH2 binding enrichment (SHP2-C SH2) | SH2 binding enrichment (c-Src SH2) | phosphorylation enrichment (FGFR1) | phosphorylation enrichment (Jak2) | phosphorylation enrichment (MERTK) | phosphorylation enrichment (Fer (mouse)) | phosphorylation enrichment (EPHB1) | phosphorylation enrichment (c-Src) | phosphorylation enrichment (AncSZ) | phosphorylation enrichment (Fyn) | phosphorylation enrichment (FGFR3) | phosphorylation enrichment (c-Abl (mouse)) | phosphorylation enrichment (Fes) | phosphorylation enrichment (EPHB2) | phosphorylation enrichment (Hck)
17 | QTWKTYVRQQQ [SFI1_Y164] | 0.95 | 0.96 | 0.756 | 0.411 | 0.766 | 0.456 | 0.446 | 0.524 | 0.37 | 0.914 | 0.526 | 0.738 | 0.673 | 1.02 | 0.685 | 0.402
18 | LYDPDFMKVIL [CYP4A22_Y104_Y104F] | 0.785 | 0.634 | 0.467 | 0.562 | 1.39 | 2.57 | 1.09 | 0.772 | 0.954 | 1.18 | 0.888 | 0.688 | 1.8 | 1.78 | 1.01 | 0.634
19 | PSDSGYSFETI [MAP1B_Y1921_YF] | 0.971 | 0.874 | 2.13 | 0.633 | 1.25 | 0.641 | 0.608 | 0.639 | 0.405 | 1.05 | 0.703 | 1.05 | 0.763 | 1.25 | 1.1 | 0.635
20 | GILDVYIFLGP [GAA_Y340] | 0.768 | 0.79 | 0.44 | 0.864 | 1.21 | 0.701 | 0.381 | 0.787 | 0.7 | 1.27 | 0.505 | 1.02 | 0.866 | 1.44 | 0.792 | 0.676
21 | GRLPEYNTRIA [CCDC151_Y542] | 0.949 | 0.643 | 0.482 | 0.404 | 0.55 | 0.45 | 0.339 | 0.341 | 0.408 | 0.512 | 0.372 | 0.543 | 0.513 | 0.589 | 0.44 | 0.416
22 | IRTDAYVQAMT [RPE65_Y89_R91Q] | 0.89 | 0.662 | 0.617 | 0.458 | 0.529 | 0.374 | 0.41 | 0.378 | 0.446 | 0.543 | 0.49 | 0.503 | 0.572 | 0.644 | 0.471 | 0.608
23 | FRIGPYQPNVP [MATR3_Y784_YF] | 0.844 | 0.754 | 0.634 | 0.538 | 0.78 | 0.532 | 0.446 | 0.477 | 0.506 | 0.773 | 0.45 | 0.736 | 0.631 | 0.966 | 0.514 | 0.484
24 | IVKAFYVRARA [AIPL1_Y268_YF] | 0.872 | 1.2 | 0.601 | 0.464 | 0.95 | 0.424 | 0.465 | 0.5 | 0.396 | 1.11 | 0.433 | 0.688 | 0.699 | 1.07 | 0.588 | 0.494
25 | NGRTGYVLQPE [PLCG2_Y1036] | 0.793 | 0.644 | 0.496 | 0.383 | 0.566 | 0.399 | 0.466 | 0.435 | 0.416 | 0.588 | 0.448 | 0.431 | 0.494 | 0.757 | 0.384 | 0.474
26 | RQQQDYWLKDV [ANPEP_Y600_I603K] | 1.01 | 0.635 | 0.675 | 0.71 | 1.25 | 0.52 | 0.495 | 0.484 | 0.564 | 1.07 | 0.305 | 0.741 | 0.662 | 0.911 | 0.556 | 0.322
27 | GAVDTYCRHNF [HLA-DRB1_Y107_A102G_YF] | 0.958 | 0.809 | 0.68 | 0.427 | 0.648 | 0.474 | 0.591 | 0.695 | 0.49 | 0.649 | 0.479 | 0.528 | 0.583 | 0.742 | 0.524 | 0.509
28 | RELGEYGLQAY [ALDH2_Y497] | 0.745 | 0.749 | 0.451 | 0.676 | 1.32 | 0.562 | 0.949 | 0.699 | 0.696 | 1.55 | 0.822 | 0.977 | 0.962 | 1.61 | 0.754 | 0.824
29 | IRSGIYYKPES [L2HGDH_Y102_H98R] | 0.712 | 0.419 | 0.697 | 0.745 | 1.26 | 9.7 | 0.465 | 0.982 | 1.51 | 0.899 | 1.97 | 0.735 | 8.79 | 0.687 | 0.753 | 2.6
30 | WQQQSYLDFGI [CTNNB1_Y30_S33F] | 0.999 | 0.776 | 0.592 | 0.816 | 0.974 | 0.418 | 0.39 | 0.635 | 0.544 | 0.883 | 0.524 | 0.757 | 0.658 | 1.04 | 0.564 | 0.441
31 | AKKIKYFEGVS [PRKDC_Y682] | 0.79 | 0.83 | 0.479 | 0.295 | 0.427 | 0.383 | 0.42 | 0.324 | 0.387 | 0.429 | 0.321 | 0.332 | 0.328 | 0.547 | 0.44 | 0.447
32 | AKKVFYMIETR [SHH_Y253_V254M] | 1.46 | 1.01 | 1.06 | 0.448 | 1.02 | 0.386 | 0.561 | 0.606 | 0.472 | 1.15 | 0.439 | 0.881 | 0.673 | 1.24 | 0.622 | 0.444
33 | YPKARYRWLVL [APTX_Y214_H215R] | 1.08 | 1.02 | 0.933 | 0.611 | 0.6 | 0.478 | 0.456 | 0.434 | 0.399 | 0.786 | 0.464 | 0.492 | 0.499 | 0.787 | 0.553 | 0.422
